A short description of this series: label from the status in PepcDB records.
In the case of “MAPRTYASVLTTPRGPAPLALYCPEAPECPKLEAISNLSFQQITQQAGTSNDQGFEFENTYVEHRINQEIESFVDTHHQEPLRKAAAQFRAVMKQEYPDSTCFITGSYPAGVDIFSSDIDFTVKVPTLEGANPFLKLMQLRKELSCYYTIFSKAYVQKGNIPVLQLMHAETKVSIDVTIDNDTSKRNTQLLAFYSQLDTRFPLLCKAMKAWAASCGVEGASRGRLNSFSLCLMLIHYLQTVQVLLNIQEIFPELNGDIVVEDDNYMKRDLKIEILEKGAFDFNQNTSSLAVLFIGFMKYYSEFNFKWNWISIKHGNVLKKKWSKTRVPKNGMPKDCRFIVVADPLLEIPRNCAGTVRQQNYMERIQLEFREEYERILKRKTIFNLYQCNWSRKLRKEGMERDLQIMILQDELRKLRIANLPTEEEVPWGTVVDFTSPRTFSPTNQHPKVFWCSEQTTENQRRDNLWPELLRTNPYAIFENLI”, the protein production result is reported as “not failed”.
Consider “MKLITKEVRIGIAGVAALCLLVFGINYLKGINMFKPASYFYVKFHNVNGLAQSSPVFADGVRVGIVRDIAYDYNQPENVIVEVEVDTDLRIPKGSSAELVPELMGGVRMNILLANNPRERYTVGDTIPGTLNNGMMEKVAAMMPAVEKMLPKLDSILTSLNTIMADQSIPATLHSIEKTTANLEVTSRQLKVLMNNDIPQLTGKLNTIGDNFVVISGNLKEIDYAATFKKIDTTLSNVKMLTEKLNSKDNTVGLLLNDPQLYNNLNQTTINAANLLEDLKEHPKRYVHFSLFGKKDKLEHHHHHH”, for which the protein production result is listed as “failed”.
With “MSFKEEQVIKHHQDLANKSVSTFLLLGLDNSGKRKLSTSRTDGMMVVIVNHKTKTITLCSLLRDTFTKIYSQQYHGYQRIETAYTYGGDAAAVATVEHFLKLPIDYYVTLNWDGFIQAINDIGPLSVRVDRAFVGQNYWGHAVHFKAGLQEMNGARALAYARERHVDNDQYRGFRQQAVLYALLKRLNQGALVAKGSQIMGDVKGQVRTNMSEGDMLSLIKYRTVLKHYRVKRVTFQWRTFDTAGRSMVEVYPDSRQHTIAELQAAAGRRAPLEHHHHHH”, the protein production entry is “failed”.
With “MSQQPESDRTEGDLRNTGMELKHERTWDYELDRIVDAVEERDAMKVGLQFPEGLKRRAGRVADDLRRLLPDETTVLLSGQPCYGACDLDTYMMRRTDVFVHFGHSPMKESDKIIYVPLFSNVEVTPIMEEARAELAAPEEDDAVGLVTTAQHMNRFDEMQAWLEERGYTVETRRGDERLTHEGQVLGCNYASADVDADQILYVGGGKFHPLGLAMEHPDKKVIIADPVNNAVHVADTEQFMKQRYAAVHKAMDAEEWGVIFCTKIGQGRWDTAEEIVEANDNAYLITMDEVTPDRLTNFGFDAYVNTGCPRITTDDGPQFKQPMLTPGEYKIAIGEKPMDSLSFDTFHGTW” the entry was “failed”; with “MSSEHSANGGPASAYGKPTFARASTPLPIQSAHMASDPIQITPSLTIPPSELVERFVRASGAGGQNVNKVSTAVELRFDVAGSPSLPEPLRARLLSRRDRRMTAEGVLVIDAQRFRTQDRNRDDARERLAEIISACLSVPKRRVATKPSHGAKLRRLDAKRERSHIKRGRSASHWE”, “failed”.
With “MTYGEAYLEGWKNIFNYEGVSNRFEFWSFMIGSGVICLLPLLCWWLAVTINNDYGVFIFFALPVSFILTLIFAVPAIALAVRRMHDIGYSGWWVTIAVLIPVTGVILLILCCLPSKSQDQA” the entry was “failed”.
Turning to “MIVRMRSCAQAAKVAEATGGVQLAGKPKPDGTPTFSRYVEIGVDFEAHRPVVESVSVLFELYDGDANSYAATGGPGAQLPSGWMVTAAKFEVEWPADPQRAGLVRSHFGARRKAFNWGLAQVKADLDAKAADPAHESVDWDLKSLRWAWNRAKDDVAPWWAENSKECYSSGLADLAQGLANWKAGKNGTRKGRRVGFPRFKSGRRDPGRVRFTTGTMRIEDDRRTITVPVIGPLRAKENTRRVQRHLVSGRAQILNMTLSQRWGRLFVAVCYALRTPTTRSPLTQPTVRAGMDLGVRTLATVATLDTATGEQTIIEYPNPAPLKATLVARRRAGRELSRRIPGSHGHRAVKAKLARLDRRCVHLRREAAHQLTTELAGTYGQVVIEDLDVAAMKRSMRRRAFRRSVSDAAMGLVAPQLAYKTAKCSGVLTVADRWFASSQIHHGCTSPDGTPCRLQGKGRIDKHLLCPVTGEVVDRDRNAALNLRDWPDNASRGPVGTTAPSAPGPTTTVGTGHGADTGSSGAGGASVRPRPRRAGRGEAKTQTPQGDAA”, the protein production entry was “failed”.
With “ALSDGVHKIEFEHGTTSGKRVVYVDGKEEIRKEWMFKLVGKETFYVGAAKTKATINIDAISGFAYEYTLEINGKSLKKYMEDRSKTTNTWVLHMDGENFRIVLEKDAMDVWCNGKKLETAGEFVDDGTETHFSIGNHDCYIKAVSSGKRKEGIIHTLIVDNREIPEIAS” the entry was “failed”.

These data come from a protein production outcome set (Wang et al. 2014).
